Assay results from the supplement of paper PMC12667976.

B1: library; numbered along this chain (parent)
chain: MATDAALRRLLRLHRTEIAVAVDSAFPLLHALADHDVVPEDKFQETLHLKEKEGCPQAFHALLSWLLTQDSTAILDFWRVLFKDYNLERYGRLQPILDSFPKDVDLSQPRKGRKPPAVPKALVPPPRLPTKRKASEEARAAAPAALTPRGTASPGSQLKAKPPKKPESSAEQQRLPLGNGIQTMSASVQRAVAMSSGDVPGARGAVEGILIQQVFESGGSKKCIQVGGEFYTPSKFEDSGSGKNKARSSSGPKPLVRAKGAQGAAPGGGEARLGQQGSVPAPLALPSDPQLHQKNEDECAVCRDGGELICCDGCPRAFHLACLSPPLREIPSGTWRCSSCLQATVQEVQPRAEEPRPQEPPVETPLPPGLRSAGEEVRGPPGEPLAGMDTTLVYKHLPAPPSAAPLPGLDSSALHPLLCVGPEGQQNLAPGARCGVCGDGTDVLRCTHCAAAFHWRCHFPAGTSRPGTGLRCRSCSGDVTPAPVEGVLAPSPARLAPGPAKDDTASHEPALHRDDLESLLSEHTFDGILQWAIQSMARPAAPFPS

Variants of: B1
Assay: AIRE transcriptional activation functional score (insulin promoter-GFP; nonsense median 0, synonymous median 1) (normalised score); higher = higher AIRE activity (more reporter activation)
Details: with insulin promoter-GFP reporter in HEK293
Procedure: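 Deep mutational scan of full-length human AIRE (codon-optimized cDNA, DT-POPCode NNN libraries over three regions) integrated at a Bxb1 landing pad in HEK293 cells carrying an insulin core promoter-GFP reporter at a Flp-In site. Cells were sorted for the top 10% GFP about 14 days after transfection. Variant frequency log-ratios (select vs non-select, TileSeq) were rescaled so that the nonsense median is 0 and the synonymous median is 1, then averaged over biological replicates.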

AIRE transcriptional activation functional score: each site, then its substitutions
A317: K 0.241; R 0.922; D 1.25; H 1.06; P 1.23; M 0.781; W 1.53; N 0.865; T 0.717; Y 0.503; V 0.416; S 0.689; E 1.37; I 0.854; L 1.01; G 0.974; Q -0.307; C 1.28; F 0.813
F318: P 1.21; K 1.39; M 1.54; N 1.45; R 1.47; T 1.31; A 0.96; L 1.05; D 1.02; W 0.907; I 1.12; E 1.34; H 1.42; Q 1.31; Y 1.07; G 1.39; S 1.19; C 1.32; V 0.874
G313: L 1.28; I 0.979; M -0.04; S 0.974; W 1.27; Q 1; D 1.39; P 0.756; K 0.717; V 1.22; F 1.13; H 1.5; A 0.829; C 1.51; T 0.676; E 0.654; R 0.762; N 0.241; Y 1.16
A321: V 1.05; D 0.763; I 1.33; T 0.918; F 1.1; M 1.58; N 1.06; L 0.961; Q 1.11; E 0.854; P 1.3; C 0.948; W 1.14; K 1.09; G 1.21; H 0.857; Y 0.541; R 0.843; S 1.01
C314: G 0.862; Q 0.418; W 0.709; T 1.14; E 0.893; D 0.933; V 1.13; R 0.842; P 1.1; I 1.08; S 1.07; M 1.12; Y 0.725; L 0.847; K 1; A 0.983; F 0.96; N 1.03; H 0.752
P315: M 1.22; N 1.1; E 0.802; F 0.835; G 0.618; H 0.985; R 0.972; C 0.985; V 1.12; D 1.08; T 0.854; A 0.558; Y 0.976; S 1.14; W 2.51; Q 1.05; K 0.481; L 0.924; I 1
I309: V 1.14; D 0.964; R 0.877; W 1.55; C 0.782; P 1.07; A 0.827; Y 1.19; H 0.916; K 0.472; M 0.866; S 1.35; Q 0.905; E 1.43; F 1.18; N 1.23; G 1.11; T 0.922; L 0.505
E307: Y 0.242; I 0.714; V 1.2; R 1.28; D 0.973; Q 1; T 1.03; G 1.18; K 1.16; H 1.11; M 0.227; N 1.41; A 0.982; L 0.372; C 0.732; S 1.2; F 0.273; W 0.599; P 0.172
C311: E 0.822; N 1.47; G 0.921; F 0.878; M 1.62; L 0.839; S 1.04; T 0.998; P 1.34; Q 0.783; R 0.856; V 0.86; Y 0.792; D 0.772; H 1.01; A 1.11; W 0.678; I 0.604; K 1.13
C322: A 1.16; K 1.21; G 1.24; D 1.77; I 0.327; E 1.77; M 1.1; F 0.737; P 1.25; H 1.5; Q 1.2; S 1.41; R 0.999; L 0.951; T 1.21; N 0.919
L320: C 0.84; S 0.896; T 1.13; A 1.19; H 0.847; Y 1.09; G 0.879; M 1.03; I 0.729; N 0.948; V 0.976; E 1.22; D 1.14; P 0.869; R 1.16; K 0.922; W 0.685; F 1.19; Q 0.88
H319: W 0.996; N 1.26; Q 1.44; K 1.15; C 1.43; D 1.24; S 1.31; R 1.03; P 1.4; E 1.39; I 0.263; F 0.514; A 1.16; Y 0.961; T 1.38; L 0.424; M 0.921; G 1.28; V 0.662
G305: Q 0.0432; N 1.16; L 1.31; K 1.08; M 0.666; H 0.264; V 1.07; R 0.945; P 0.937; S 0.9; T 1.35; I -0.493; Y 1.05; W 0.779
D312: N 0.702; C 1.09; T 0.953; Q 1.17; F 0.823; G 0.92; H 1; S 0.764; A 1.19; W 0.939; Y 0.942; V 0.485; I 0.684; K 0.281; E 0.977; L 0.872; M 0.226; R 0.976; P 0.626
G306: T 1.15; E 1.14; Q 1.14; M 0.451; L 0.492; A 0.976; I 0.377; C 0.922; R 0.689; D 0.954; N 1.18; P 0.361; H 1.11; W 0.744; V 0.712; S 0.862; F 0.459; Y 0.924; K 0.811
R316: L 0.804; H 1.36; Q 1.05; P 1.14; V 0.904; I 1.26; M 1.04; S 1.19; E 1.28; W 1.28; D 1.42; T 1.06; G 1.33; K 1.03; C 1.22; Y 1.36; F 0.43; N 0.525; A 0.77
L308: S 1.12; T 0.853; I 0.905; F 0.909; R 0.932; Q 1.3; N 0.45; W -0.607; V 1.16; D 0.755; Y 0.412; K 0.0443; G 0.784; P 0.912; H 1.33; A 1.06; M 1.11; C 1.43; E 1.02
C310: W 0.433; D 0.991; L 0.935; N 0.714; K 0.681; V 0.912; H 0.624; M 0.814; Q 0.509; G 0.824; I 0.643; S 0.768; P 0.625; T 0.959; E 1.29; F 0.908; A 0.821; Y 0.993; R 0.907
